Reference: patent US20200261490

What was measured:
[1] = molecular target: STC2(C120A), human stanniocalcin 2 with cysteine 120 replaced by alanine, C-terminally myc-his-tagged
[2] = molecular target: recombinant human stanniocalcin 1, C-terminally myc-his-tagged
[3] = molecular target: recombinant human stanniocalcin 2, C-terminally myc-his-tagged
[4] = molecular target: untagged human STC2 (transgene-derived STC2 of transgenic mice; endogenous STC2 of 293T cells)

Protein	proteolytic activity of murine PAPP-A2 towards radiolabeled IGFBP-5 [1]	proteolytic activity of murine PAPP-A2 towards radiolabeled IGFBP-5 [2]	proteolytic activity of murine PAPP-A2 towards radiolabeled IGFBP-5 [3]	proteolytic activity of murine PAPP-A towards radiolabeled IGFBP-4 [1]	proteolytic activity of murine PAPP-A towards radiolabeled IGFBP-4 [2]	proteolytic activity of murine PAPP-A towards radiolabeled IGFBP-4 [3]	proteolytic activity towards IGFBP-4 in conditioned media of STC2 transgenic mouse embryonic fibroblasts [4]
murine PAPP-A2 (protein) QNGGGASLRRVETFNSQGGLPVLYFTGKRERLLLRPEVLAEIPREAFTVEAWVRPEGGQSNPAIIAGVFDNCSHTVNDKGWALGIRSGKDKGWRDARFFFSLRTDRMKKATIVTGHSRYQPGMWTHVAATYDGQHTALYVDGTRVASSRDQFGPLNSPFMASCRSLILGGDSSEDGHYFRGYLGTLVIWSTALSQTHLQHSPLHPSAADELTTLILTATFDPLMEQWAPFRDDLYPRLEVLQDSESQPEILSPLQPPPCGQTACDNVELISQYNKHGPLRREKVIRYQVVNIYDDEGLHPIVSDHQIRRQHEALNQAFSRYNISWQLSVHRVHNSTLRHRVVLVNCEPSKIGNDHCDPECEHPLTGFDGGDCRLQGRCYSWNRRDGLCHVECNNMLNDFDDGDCCDPEVTDVRKTCFDPDSPKRAYMSVKELKEALQLNSTHFLNVYFASSVREDLAGSATWPWDKEALSHLGGVVLNPTYYGMLGHTNIMIHEVGHVLGLYHVFKGVSERESCDDPCRETVPSMETGDLCADTAPTPKSKLCRDPEPANDTCGFTLFPGAPFNNYMSYTDDECTDNFTPNQVARMHCYLDLVYQQWSESQKPTPIPIPPMVIGQTHKSLTIHWLPPISGVVYDRAPDSMCSACTEDGTFRQYVYKASSGRVCDSSGYWTPEEAVGPPDVDQPCEPSLQAWSPELHLNHMNMTVPCPAEGCSLELLFQYPVQADTLTLWVTYLSMNSSKAFFDIEILLEHKKSMHLGPLNTFCDIPLTIKLHMDEKVMGAKVYTFDERMEIDAALLTSRPNSSLCSGCKPMSYQVLREPPFSSGLPMVVTHPHRKFTDTEVIPGQMYQYQVQAEAVGELGEASPPLSHIHGGPYCGDGKVERSIGEMCDDGDLLNGDGCSRACELEEGFNCAGEPSLCYRYEGDGVCEDFEKESIITDCGLHTPEGYLDQWASQAYSYHEDKEKCPVSLVTGEPHSMICTSWHPDSSPYHSFPGWFPCVFSLKKDQDAGSEQAKDSLQKDNEIWLEVCFNRPGVAVAIYIFLASDGVTPGEHQQATVTLYLIDVSGSNHSLGTYGLSCQQNPLVINVSHHVNVYPQHTSSMLLNFSSPLVGISAVALRTSSQTSSSAPSNCIPEQNYEGKSCAQRPCGEQGRCAPLLLDHTDMVNCTSSSPGHMECAITCQRGYVLQTSSGQYLRNMQKEILLTCSSGHWDKDVICKRLDCGVPDSSLVNYANFSCLEGTDFLKQCSISCVPPAKLQGLNPWLTCLEDGLWSLPEVYCKLECEAPPVIPNANLLLPHFLEGNHDVGTICKYECKPGYYVKETSGSQGKNKFLKIQCLDDGSWEQGSCVPVVCEPPPPVFEGMYECTDGFKLDSQCVLNCNQETEGIPILCTKEGLWTQEFKLCENLQGECPPPTSELNSVEYKCGQGYGIGAVCSPSCVIPPSDPVILPENVTTDTLEHWMEPVKVQSIVCTGRRQWHPDPSLVHCIQSCEPFQADGWCDTINNRAYCNYDGGDCCSSTLSSKKVIPFAADCDLDECTCRDPKAEENQ	Murine PAPP-A and PAPP-A2 are inhibited by STC1 and STC2, but not STC2(C120A)	Murine PAPP-A and PAPP-A2 are inhibited by STC1 and STC2, but not STC2(C120A)	Murine PAPP-A and PAPP-A2 are inhibited by STC1 and STC2, but not STC2(C120A)				
murine PAPP-A (protein) RGAEEPSPPSRALYFSGRGEQLRLRADLELPRDAFTLQVWLRAEGGQKSPAVITGLYDKCSYTSRDRGWVMGIHTTSDQGNRDPRYFFSLKTDRARKVTTIDAHRSYLPGQWVHLAATYDGRLMKLYMNGAQVATSAEQVGGIFSPLTQKCKVLMLGGSALNHNFRGHIEHFSLWKVARTQREIVSDMETRGLHTPLPQLLLQENWDNVKRTWSPMKDGNSPQVEFSNAHGFLLDTNLEPPLCGQTLCDNTEVISSYNQLPSFRQPKVVRYRVVNIYDDHHENPTVSWQQIDFQHQQLAEAFQHYNISWELEVLNINSSSLRHRLILANCDISKIGDEKCDPECNHTLTGHDGGDCRQLRYPAFMKKQQNGVCDMDCNYERFNFDGGECCDPDITDVTKTCFDPDSPHRAYLDVNELKNILRLDGSTHLNIFFANSSEEELAGVATWPWDKEALMHLGGIVLNPSFYGIPGHTHTMIHEIGHSLGLYHIFRGISEIQSCSDPCMETEPSFETGDLCNDTNPAPKHKFCGDPGPGNDTCGFHGFFNTPYNNFMSYADDDCTDSFTPNQVSRMHCYLDLVYQSWQPSRKPAPVALAPQVVGHTMDSVMLEWFPPIDGHFFERELGSACDLCLEGRILVQYAFNASSPMPCGPSGHWSPREAEGHPDVEQPCKSSVRTWSPNSAVNPHTVPPACPEPQGCYLELEFRYPLVPESLTIWVTFVSSDWDSSGAVNDIKLLTISGKNISLGPQNVFCDIPLTIRLRDVGEEVYGIQIYTLDEHLEIDAAMLTSTVDSPLCLQCKPLQYKVLRDPPLLEDVASLLHLNRRFMDTDLKLGSVYQYRIITISGNEESEPSPAAIYTHGSGYCGDGVIQKDQGEECDDMNKVNGDGCSLFCKQEVSFNCIDEPSRCYFHDGDGMCEEFEQKTSIKDCGVYTPQGFLDQWASNASVSHQDQQCPGWVVIGQPAASQVCRTKVIDLSEGISQHAWYPCTITYPYYHLPQTTFWLQTYFSQPMVAAAVIIHLVTDGTYYGDQKQETISVQLLDTKDQSHDLGLHVLSCRNNPLIIPVVHDLSQPFYHSQAVHVSFSSPLVAISGVALRSFDNFDPVTLSSCQRGETYSPAEQSCVHFACQAADCPELAVGNASLNCSSNHHYHGAQCTVSCQTGYVLQIQRDDELIKSQVGPSITVTCTEGKWNKQVACEPVDCGIPDHHHVYAASFSCPEGTTFGRRCSFQCRHPAQLKGNNSFLTCMEDGLWSFPEALCELMCLAPPPVPNADLQTARCRENKHKVGSFCKYKCKPGYHVPGSSRKSKKRAFKTQCTQDGSWQEGTCVPVTCDPPPPKFHGLYQCTNGFQFNSECRIKCEDSDASQGRGSNIIHCRKDGTWSGSFHVCREMQGQCSAPNQLNSNLKLQCPDGYAIGSECAISCLDHNSESIILPVNLTVRDIPHWMNPTRVQRIVCTAGLQWYPHPALIHCVKGCEPFMGDNYCDAINNRAFCNYDGGDCCTSTVKTKKVTPFPMSCDLQNDCACRDPEAQEHNRKDLRGYSHG				Murine PAPP-A and PAPP-A2 are inhibited by STC1 and STC2, but not STC2(C120A)	Murine PAPP-A and PAPP-A2 are inhibited by STC1 and STC2, but not STC2(C120A)	Murine PAPP-A and PAPP-A2 are inhibited by STC1 and STC2, but not STC2(C120A)	conditioned media from MEFs derived from STC2 transgenic mice showed a marked reduction in PAPP-A activity
